The test system of test [1] is rat ischemia-reperfusion model of MI. Briefly: Pilot dose-finding study: hydroxyproline assay of collagen in the left ventricle after ischemia-reperfusion MI. The format is in vivo. The note with it: 100, 200, 400, 600 μg/day by osmotic pump from day 0 for 7 days; vs vehicle; n=2-3. On the procedure: Animal experiments to test the therapeutic potential of Gal-3C in the preservation of post-MI cardiac function were performed using surgical induction of MI in rodents and functional evaluation of treatment as previously described (61-66). To most accurately model cardiac damage experienced by MI patients, a well-established ischemia-reperfusion procedure was used in which the left anterior descending coronary artery (LAD) of rats was occluded for 25 min followed by restoration of blood flow (67). […]
Briefly, rats were ventilated to a small animal volume-controlled ventilator (Harvard Rodent Ventilator, Model 683, South Natick, Mass.), and the heart was exposed via thoracotomy. […] All animals were monitored post-operation until they became ambulatory. […]
A pilot dose-finding study was performed to determine Gal-3C levels reducing fibrosis, with collagen levels in heart tissue extracts as surrogate endpoints. […] It was determined that an equivalent to the mouse dose for use in rats of 250-300 g/body weight based on m^2 of average body surface area of the two species as approximately 105 μg/day. […]

The test system is the same in test [2]. Briefly: Intraventricular (LV) pressure / hemodynamic measurements after ischemia-reperfusion MI. The format is in vivo. The procedure:
Pre-filled and primed mini-osmotic pumps were implanted a few minutes before surgical induction of MI and Gal-3C treatment continued for 7 days (denoted as “early window”) as in the pilot study described above. The effect of treatment on cardiac function was evaluated by serial echocardiography on day 0 pre-MI, 2 and 28 days post-MI, and LV pressure measurement at 28 days. For the early window, groups consisted of sham surgery with PBS, sham with 600 μg/day Gal-3C, MI with PBS, MI with 200 μg/day Gal-3C, and MI with 600 μg/day Gal-3C.
Serial echocardiography was performed at 2, 28, and 56 days (8 weeks) post-MI and terminal intraventricular pressure catheter measurements were obtained. The effect on cardiac function from losartan was compared to the effect of Gal-3C that included data from the 12 animals in the Gal-3C and the 12 animals in the vehicle-only group that were presented in FIG. 9 and FIG. 10. […] The results described herein indicate that treatment with Gal-3C post-MI would be more beneficial on recovery and preservation of heart function compared to treatment with losartan or another ARB alone.

For test [3] the test system is unchanged. Briefly: Interstitial (non-scar) border zone fibrosis from Sirius red-stained heart sections. The format is in vivo. The note with it: delayed window, 600 μg/day. From the text:
After rats in the delayed treatment study were euthanized, hearts were harvested and sectioned for Masson's trichrome and Sirius red staining with quantitative image analysis to assess remodeling. Rather than using an optimized approach for infarct size measurement in permanent ligation rat models (64), it was confirmed that in the ischemia-reperfusion MI model, a volumetric infarct sizing approach (i.e., % area in the tissue sections that was scarred) would be more accurate. Using this approach for analysis of Masson's trichrome staining, it was shown that the infarct size was considerably (>2-fold) reduced in Gal-3C-treated (600 μg/day) rats, a difference that achieved significance with Gal-3C treatment in the delayed window (FIG. 8A).
Quantitative histology of Sirius red staining for interstitial fibrosis was performed on tissue sections with the most scar from each heart as described above in Example 3 using ImageJ.

For test [4], the system named is xenograft model of human multiple myeloma. The note with it: mice; 30 μg/day by ALZET mini-osmotic pumps; cited from earlier work.
The mark [5] stands for this setting: 8 weeks post-MI, Gal-3C 600 μg/day days 4-10, losartan 8 mg/kg/day in drinking water 56 days, 15/group.
[6] abbreviates: Gal-3C 600 μg/day days 4-10 vs losartan 8 mg/kg/day 56 days, 15/group.
The mark [7] stands for this setting: delayed window, 600 μg/day, 8 weeks, vs controls, n=12/group.

B1: Gal-3C: N-terminally truncated form of full length galectin-3, lacking the amino-terminal domain but retaining carbohydrate binding ability; 143 carboxy-terminal residues, SEQ ID NO: 3 (protein)
chain: GAPAGPLIVPYNLPLPGGVVPRMLITILGTVKPNANRIALDFQRGNDVAFHFNPRFNENNRRVIVCNTKLDNNWGREERQSVFPFESGKPFKIQVLVEPDHFKVAVNDAHLLQYNHRVKKLNEISKLGISGDIDITSASYTMI
Regarding B1, the “reduction of collagen levels in the LV (hydroxyproline assay)” value in test [1] was 20-35%. In test [2] (setting [5]), the “LVEDP, benefit relative to PBS” value is “statistically significant benefit”; the “LVSP, benefit relative to PBS” value is on record as “statistically significant benefit”; the “mean ABP, benefit relative to PBS” value is recorded as “statistically significant benefit”. In test [2] (setting [6]), the “LVEDP, benefit relative to losartan” value is on record as “statistically significant benefit” and the “LVSP, benefit relative to losartan” value is given as “statistically significant benefit”. Also, the “dP/dt max and dP/dt min” value in test [2] (delayed window Gal-3C, 8 weeks, expanded groups 15/group (FIG. 13)) is “did not reach significance”. In addition, in test [2] (setting [7]), the LVEDP entry is reported as “reached significance”, the LVSP entry was “reached significance”, the dP/dt max result is “did not reach significance” and the dP/dt min result is reported as “did not reach significance”. For the same molecule, in test [2] (setting [7]), the “mean ABP” value is “reached significance”. The “all five hemodynamic parameters (mean ABP, LVSP, LVEDP, dP/dt max, dP/dt min)” value in test [2] (delayed window, 600 μg/day, 28 days, vs vehicle) is on record as “statistically significant improved”. For the same molecule, the “intraventricular pressure measurement (mean ABP, LVSP, LVEDP, dP/dt max, dP/dt min)” value in test [2] (early window, 200 and 600 μg/day, 28 days, vs PBS) is reported as “did not reach statistical significance”. Moreover, in test [2] (early window, 28 days), the “hemodynamic parameters (mean ABP, dp/dt max and min), 600 μg/day compared to 200 μg/day” value is “Trends to greater improvement”. In addition, the “reduction of interstitial fibrosis relative to vehicle-only controls” value in test [3] (8 weeks post-MI, n=12/group) is “roughly 50%”. For the same molecule, the “interstitial fibrosis (Sirius red), mean +/- SD” value in test [3] (8 weeks post-MI, n=12/group, P=0.0003 vs PBS-only) is given as 2.4+/−1.3%. Moreover, the “reduction of interstitial fibrosis vs vehicle-only controls” value in test [3] (28 days post-MI) is on record as about 65%. The “efficacy in xenograft model of human multiple myeloma” value in test [4] is “good efficacy”.

Source of the values: patent publication US10369195B2, “Methods and compositions for preventing and treating damage to the heart” (MandalMed, Inc., priority 2016, dated 2019).
